Biological target: UapA K73A/R133A/R421A/T401P, purified, detergent-solubilized (Aspergillus nidulans) (UniProt Q07307)
Assay: native MS

UapA K73A/R133A/R421A/T401P, purified, detergent-solubilized (from UniProt Q07307 1-574) (natural protein)
stoichiometry N: 2

From publication doi:10.1101/710897
